T1: nPfh1 (nuclear isoform, wild-type) (Schizosaccharomyces pombe, UniProt Q9UUA2-2 1-785)
T1 sequence: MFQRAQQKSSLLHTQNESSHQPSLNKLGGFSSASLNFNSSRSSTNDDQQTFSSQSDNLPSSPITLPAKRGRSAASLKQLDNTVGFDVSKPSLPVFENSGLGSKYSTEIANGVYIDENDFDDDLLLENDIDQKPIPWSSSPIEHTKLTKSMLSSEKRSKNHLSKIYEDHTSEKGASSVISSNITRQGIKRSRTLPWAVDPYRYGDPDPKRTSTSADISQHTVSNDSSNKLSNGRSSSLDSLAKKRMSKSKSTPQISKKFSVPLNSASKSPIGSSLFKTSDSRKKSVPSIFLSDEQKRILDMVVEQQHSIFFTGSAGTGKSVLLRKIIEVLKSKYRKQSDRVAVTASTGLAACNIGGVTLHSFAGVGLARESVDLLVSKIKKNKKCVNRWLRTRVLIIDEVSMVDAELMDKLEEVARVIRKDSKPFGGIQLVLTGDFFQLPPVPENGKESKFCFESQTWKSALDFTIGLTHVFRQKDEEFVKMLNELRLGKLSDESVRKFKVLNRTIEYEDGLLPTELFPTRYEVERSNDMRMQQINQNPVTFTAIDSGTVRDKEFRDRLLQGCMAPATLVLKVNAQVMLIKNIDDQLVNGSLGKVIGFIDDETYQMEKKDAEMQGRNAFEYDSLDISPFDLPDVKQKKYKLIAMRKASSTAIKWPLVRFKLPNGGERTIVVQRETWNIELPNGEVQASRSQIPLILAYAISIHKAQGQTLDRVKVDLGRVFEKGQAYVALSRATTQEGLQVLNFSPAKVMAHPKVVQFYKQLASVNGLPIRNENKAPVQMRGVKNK

T2: nPfh1-L430P (Schizosaccharomyces pombe, UniProt Q9UUA2-2 1-785, L410P)
T2 sequence: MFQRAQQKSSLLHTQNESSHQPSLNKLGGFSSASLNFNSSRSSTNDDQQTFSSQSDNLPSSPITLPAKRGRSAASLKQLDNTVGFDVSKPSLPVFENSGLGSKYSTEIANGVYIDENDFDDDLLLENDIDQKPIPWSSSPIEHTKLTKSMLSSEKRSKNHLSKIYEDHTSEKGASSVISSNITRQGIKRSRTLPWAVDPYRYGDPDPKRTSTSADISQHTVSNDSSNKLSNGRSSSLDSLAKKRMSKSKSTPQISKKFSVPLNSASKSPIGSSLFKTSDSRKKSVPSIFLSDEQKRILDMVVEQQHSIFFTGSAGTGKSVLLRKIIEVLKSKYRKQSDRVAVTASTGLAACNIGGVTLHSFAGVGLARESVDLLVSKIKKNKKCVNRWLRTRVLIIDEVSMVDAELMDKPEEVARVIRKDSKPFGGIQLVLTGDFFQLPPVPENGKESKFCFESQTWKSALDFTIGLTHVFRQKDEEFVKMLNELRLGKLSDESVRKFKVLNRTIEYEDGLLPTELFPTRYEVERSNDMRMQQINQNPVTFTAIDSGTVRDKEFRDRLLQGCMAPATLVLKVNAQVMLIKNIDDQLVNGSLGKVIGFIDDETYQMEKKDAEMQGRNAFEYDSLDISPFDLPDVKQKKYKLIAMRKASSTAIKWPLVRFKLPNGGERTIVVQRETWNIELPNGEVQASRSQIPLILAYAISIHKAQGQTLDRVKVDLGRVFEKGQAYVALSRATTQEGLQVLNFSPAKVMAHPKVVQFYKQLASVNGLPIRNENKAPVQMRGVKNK

T3: nPfh1-Δ21 (Schizosaccharomyces pombe, UniProt Q9UUA2-2 1-785, del408-428)
T3 sequence: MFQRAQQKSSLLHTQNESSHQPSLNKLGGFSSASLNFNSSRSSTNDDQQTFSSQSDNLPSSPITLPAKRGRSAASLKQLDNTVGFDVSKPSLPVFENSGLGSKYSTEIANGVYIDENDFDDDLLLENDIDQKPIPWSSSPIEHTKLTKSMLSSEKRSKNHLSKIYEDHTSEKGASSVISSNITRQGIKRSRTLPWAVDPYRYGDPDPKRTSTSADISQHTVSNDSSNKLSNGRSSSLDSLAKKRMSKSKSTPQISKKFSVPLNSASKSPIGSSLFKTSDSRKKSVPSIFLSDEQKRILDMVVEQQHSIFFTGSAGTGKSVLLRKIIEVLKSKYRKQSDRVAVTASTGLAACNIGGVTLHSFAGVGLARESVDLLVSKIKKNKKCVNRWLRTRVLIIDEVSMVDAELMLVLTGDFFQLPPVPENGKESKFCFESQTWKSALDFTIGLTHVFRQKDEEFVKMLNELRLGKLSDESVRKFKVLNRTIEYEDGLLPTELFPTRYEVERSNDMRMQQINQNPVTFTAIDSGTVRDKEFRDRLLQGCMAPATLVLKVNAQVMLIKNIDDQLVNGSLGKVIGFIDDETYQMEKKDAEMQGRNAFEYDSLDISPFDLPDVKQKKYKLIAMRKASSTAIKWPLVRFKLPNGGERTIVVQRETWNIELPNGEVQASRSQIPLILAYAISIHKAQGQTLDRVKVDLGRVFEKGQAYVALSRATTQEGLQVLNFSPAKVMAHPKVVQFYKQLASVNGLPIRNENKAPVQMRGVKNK

T4: nPfh1-L430A (Schizosaccharomyces pombe, UniProt Q9UUA2-2 1-785, L410A)
T4 sequence: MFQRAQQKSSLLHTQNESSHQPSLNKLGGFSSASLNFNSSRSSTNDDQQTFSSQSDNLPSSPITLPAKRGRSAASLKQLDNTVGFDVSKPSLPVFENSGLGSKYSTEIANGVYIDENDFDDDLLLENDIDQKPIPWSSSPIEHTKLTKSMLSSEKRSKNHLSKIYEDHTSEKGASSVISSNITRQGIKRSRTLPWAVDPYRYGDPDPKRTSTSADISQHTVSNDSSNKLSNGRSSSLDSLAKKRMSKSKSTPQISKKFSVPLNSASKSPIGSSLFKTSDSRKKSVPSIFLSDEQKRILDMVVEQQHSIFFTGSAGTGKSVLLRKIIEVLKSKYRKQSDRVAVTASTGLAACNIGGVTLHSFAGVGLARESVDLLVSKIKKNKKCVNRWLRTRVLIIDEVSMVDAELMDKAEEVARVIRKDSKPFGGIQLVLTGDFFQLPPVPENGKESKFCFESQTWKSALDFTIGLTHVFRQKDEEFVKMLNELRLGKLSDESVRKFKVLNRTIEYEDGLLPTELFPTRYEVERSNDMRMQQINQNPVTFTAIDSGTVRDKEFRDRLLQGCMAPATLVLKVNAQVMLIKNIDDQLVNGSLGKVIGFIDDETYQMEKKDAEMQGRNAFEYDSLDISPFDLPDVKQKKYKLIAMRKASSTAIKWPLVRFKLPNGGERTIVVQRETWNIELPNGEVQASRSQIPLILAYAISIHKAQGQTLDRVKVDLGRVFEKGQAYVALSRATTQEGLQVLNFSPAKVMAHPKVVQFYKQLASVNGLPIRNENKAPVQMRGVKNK

B1: 3'-5' DNA/DNA partial duplex (dsDNA)
DNA 1: TCGATGGTACGGACGTGCTTAAAGAAAAAAAAAA
DNA 2: TCGATGGTACGGACGTGCTTAA
B2: Duplex DNA/DNA (dsDNA)
DNA 1: TTAAGCACGTCCGTACCATCGA
DNA 2: TCGATGGTACGGACGTGCTTAA
B3: Y-fork (dsDNA)
DNA 1: AAAAAAAAAAGATTAAGCACGTCCGTACCATCGA
DNA 2: TCGATGGTACGGACGTGCTTAAAGAAAAAAAAAA

What was measured:
Assay in all cases: EMSA
[1] = target: T1, nPfh1 (nuclear isoform, wild-type)
nPfh1-L430P = target: T2, nPfh1-L430P
nPfh1-Δ21 = target: T3, nPfh1-Δ21
nPfh1-L430A = target: T4, nPfh1-L430A

Row | Binder | binding result [1] | binding signal (nPfh1-L430P) | binding signal (nPfh1-Δ21) | binding signal (nPfh1-L430A)
1 | B1 | no binding |  |  | 
2 | B2 | no binding |  |  | 
3 | B3 |  | < 5 % bound | < 5 % bound | < 5 % bound

Reference: PMC6144812
